Results on 8 molecules are retold here after paper PMC8561734, “Structural basis for SdgB- and SdgA-mediated glycosylation of staphylococcal adhesive proteins” (Acta Crystallographica. Section D, Structural Biology, 2021).

The labels stand for the following.
B1: SdgB (glycosyltransferase, Staphylococcus aureus USA300) (enzyme)
chain: MNYFVGNSLGVNLTGIEKAIINRLNLFKEMGRPAQCVFLSWNRYLYRNAQNYITSSDYINMYDFFQEATYLERNEPFDWLSYWTDECHYTLKHVENSHDFRIYDQERFLMYAHFQDPKYRILDYVNHFDSQRRKVKRDFYDVRGFLSCSRILVDKQQTLCEFFYNPEGDTKLEKYFSYKDGKPEVQKIIVYYANKQYFFNNETELGAFFIKQLYQHGDLFFSDRNVYTAPIFNLTPESIPVVAVLHSTHIKNIDALDSSPFKNVYKAMFENLSRYRAIIVSTEQQKLDVEKRINHTIPVVNIPVGYSETIDTPVQTLDQRSVKLISVARYSPEKQLHQQIELIKRLVSYVPKIELHMYGFGSESKKLNELIQKYGLENHVYLRGFLSNLDQEYSDAYLSLITSNMEGFSLALLESLAHGVPVISYDIKYGPNELITSDFNGYLITKNDEDALFDKVKYVIDHPEVQQRLSKGSLAKAQQYSKASLIKQWDQFVRLI
notes: SdgB, O-GlcNAc glycosyltransferase of S. aureus strain USA300, gene SAUSA300_0550, cloned into pET-21a(+); theoretical monomer mass 59.5 kDa; A selenomethionine-substituted form was used only for phasing; also called SdgB_(quaternary); source: E. coli Rosetta 2(DE3)pLysS, purified (HiTrap Chelating, HiTrap Q, Superdex 200)

Where no end group is shown, it is not given here. The star is where a group is joined. βGlcNAc = CC(=O)N[C@@H]1[C@@H](O)[C@H](O)[C@@H](CO)O[C@H]1*

Data set [1] deals with T1, SdgB (Staphylococcus aureus, UniProt A0A0H2XGN0).
T1 construct: gene SAUSA300_0550; full-length, C-terminal His6 tag (pET-21a), E. coli Rosetta 2(DE3)pLysS; residues 1-496 compared
Description: X-ray crystallography. As to conditions: donor-binding site, closed form.

Data set [2] deals with SdgA (glycosyltransferase, Staphylococcus aureus USA300) (Staphylococcus aureus (strain USA300)). Description: AUC; sedimentation equilibrium; SdgB 1 µM, SdgA 4.5 µM; 20 mM HEPES pH 7.5, 150 mM NaCl, 1 mM MgCl2; 9000 and 15 000 rev/min; global fit to a monomer–dimer self-association model (dimer to monomers).
For data set [3] the target is unchanged. The experiment in a line: AUC; sedimentation velocity; SdgA at 4.5 µM; 30 000 rev/min.
The target of data set [4] is T1, SdgB. Description: MALDI-MS O-GlcNAcyltransferase assay. In kind it is biochemical. To be noted: 10 mM donor; acceptor DSD or DSDSD 3 mM, 5 uM enzyme, 20 mM HEPES pH 7.5, 150 mM NaCl, 1 mM MgCl2, 37 C, 2 h.
Data set [5] deals with the molecule itself. The experiment in a line: AUC; sedimentation equilibrium; SdgB 1 µM, SdgA 4.5 µM; 20 mM HEPES pH 7.5, 150 mM NaCl, 1 mM MgCl2; 9000 and 15 000 rev/min; global fit to a monomer–dimer self-association model (dimer to monomers).
Data set [6] deals with the molecule itself. The experiment in a line: SEC-MALS; SdgB 0.22 mg injected; Superdex 200 Increase 10/300 GL; 20 mM Tris–HCl pH 7.5, 200 mM NaCl; 0.5 ml/min.
Data set [7] deals with T2, SdgB (glycosyltransferase, Staphylococcus aureus USA300) (Staphylococcus aureus (strain USA300), UniProt A0A0H2XGN0 1-496).
T2 chain: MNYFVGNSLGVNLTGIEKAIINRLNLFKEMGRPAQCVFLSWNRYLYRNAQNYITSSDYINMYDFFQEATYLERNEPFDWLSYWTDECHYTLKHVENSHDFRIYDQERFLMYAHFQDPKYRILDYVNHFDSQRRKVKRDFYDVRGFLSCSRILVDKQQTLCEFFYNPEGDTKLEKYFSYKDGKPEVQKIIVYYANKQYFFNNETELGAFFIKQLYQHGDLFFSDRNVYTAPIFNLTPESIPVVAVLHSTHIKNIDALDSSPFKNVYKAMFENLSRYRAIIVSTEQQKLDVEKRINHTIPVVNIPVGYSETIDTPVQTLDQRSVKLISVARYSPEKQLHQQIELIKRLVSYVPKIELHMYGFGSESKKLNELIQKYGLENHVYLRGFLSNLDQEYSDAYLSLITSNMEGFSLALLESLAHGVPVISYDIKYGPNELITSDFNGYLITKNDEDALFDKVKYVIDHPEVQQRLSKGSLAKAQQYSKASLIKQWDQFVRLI
The experiment in a line: SPR. (In general: In SPR one partner is held on a chip, and binding of the other changes the refractive index at the surface.)

The target of data set [8] is B1. Description: SPR; SdgB immobilised on a PEG-based sensor chip (1062 RU); SdgA 0.39–25.0 µM as analyte; HBS-EP (10 mM HEPES pH 7.4, 150 mM NaCl, 0.03 mM EDTA, 0.005% Tween 20); 20°C; kinetic fit with Scrubber2. To be noted: both partners purified.
The target of data set [9] is B1. The experiment in a line: crystal structure; SdgB crystal (0.2 M MgCl2, 0.1 M Tris–HCl pH 8.5, 25% PEG 3350) quick-soaked with 6.14 mM UDP and 2.45 mM 5-mer peptide DSDSD for 30 min. To be noted: both partners purified.
Data set [10] deals with B1. The experiment in a line: crystal structure; SdgB crystal (20 mM CaCl2, 85 mM trisodium citrate pH 5.6, 25.5% PEG 4000, 15% glycerol) soaked with 2.66 mM 9-mer SD-repeat peptide and 9.60 mM UDP-GlcNAc for 7.5 h. As to conditions: both partners purified.

With `O=c1ccn([C@@H]2O[C@H](COP(=O)(O)OP(=O)(O)O)[C@@H](O)[C@H]2O)c(=O)[nH]1` [UDP], on SdgB [1] (complex with cleaved GlcNAc and diGlcNAcylated 9-mer, 2.5 A, also seen with DSDSD in a second structure (7VFM)), the X-ray crystallography result is “distinct electron density for UDP and GlcNAc was observed in the cleft”. One may read the Kd as the constant that tells how readily two partners part at equilibrium. A word on the stoichiometry N: it is the number of molecules, sites or subunits per partner or assembly. Regarding “SdgA (glycosyltransferase, Staphylococcus aureus USA300) (from UniProt A0A0H2XI10 1-490) (enzyme)”, in [2], the Kd is 14.1 µM. Besides, the stoichiometry N in data set [3] was found to be 2. Regarding `CC(=O)N[C@H]1C(O)O[C@H](CO)[C@@H](O)[C@@H]1O` (some centres unmarked) [GlcNAc], the X-ray crystallography entry at SdgB [1] (cleaved from soaked UDP-GlcNAc, with UDP and diGlcNAcylated 9-mer) is “distinct electron density for UDP and GlcNAc was observed in the cleft”. `CC(=O)N[C@H]1[C@@H](OP(=O)(O)OP(=O)(O)OC[C@H]2O[C@@H](n3ccc(=O)[nH]c3=O)[C@H](O)[C@@H]2O)O[C@H](CO)[C@@H](O)[C@@H]1O` [UDP-GlcNAc]: the “MALDI-MS O-GlcNAcyltransferase assay” value at SdgB [4] is listed as “converted into mono-GlcNAcylated forms by SdgB but not by SdgA”. Consider B1, for which the equilibrium dissociation constant (Kd) in data set [5] was 0.926 µM. The “stoichiometry N” value in data set [6] is 2.

B2: SdgA (glycosyltransferase, Staphylococcus aureus USA300) (enzyme)
chain: MNYILGTILESKITGVEKAQINRLKLFKQHGISSKCVYVKWNPYSYTYAKQHQIENDVFTMYDYFQKAINYKKTKQVNWIQYWEKSCRYTLKFVENSNDVRIYDEEQFVMYAHFLDKQYHQLNYVNYFDHKRRKVKRELYDGRGFLSCSRILGEGQRIVLENYYTPNGEIVIQKYFDDIKGKNTLTKVILNEDQHQQFFDTEDELVQYFLHQLCKNNDQIILDRPHELGNVIAGLNQSIPVIVVLHSTHLSGAGNGIKSFYKTVFNNLTRYKAIVVSTEKQCQDISQYIENKIPVINIPVGYVANLKYQFDINQKEKNHIISIARLVENKQIKHQIEVIKQLVTKHPNIQLNIYGHGNGLSEYRQLVEDYHLSEHVKFHGFKTHINEEIAKAELMLSTSKMEGFGLAILESLSVGTPVISYDVDYGPSELIQDGFNGYLVPQGDINQMVEKVDQLLNNTQKLQQFSINSIESAQQYNATTISTKWQNILN
notes: SdgA, glycosyltransferase of S. aureus strain USA300, gene SAUSA300_0549, cloned into pET-21a(+); theoretical monomer mass 60.4 kDa; source: E. coli Rosetta 2(DE3)pLysS, purified (HiTrap Chelating, HiTrap Q, Superdex 200)
For orientation: koff means the rate constant with which the complex falls apart. The low end stands for slow dissociation, the high end for fast dissociation. B2 gave a dissociation rate constant (koff) in [7] of 0.000496 s⁻¹. In [8], this molecule showed a dissociation constant (Kd) of 0.393 µM.

B3: 5-mer SD-repeat peptide Asp-Ser-Asp-Ser-Asp (DSDSD) (peptide)
peptide: DSDSD
notes: serine–aspartate repeat as in the SDR domains of staphylococcal SDR proteins (ClfA and others); no one parent protein is named; only SDSD was modelled in the structure; also called 5-mer SDR peptide; source: synthetic peptide
As for B3, in [9], the binding result is listed as “binds”.

B4: diGlcNAcylated 9-mer SD-repeat peptide (DSDSDSDSD) (peptide)
peptide: DSDS(βGlcNAc)DSDS(βGlcNAc)D
notes: serine–aspartate repeat as in the SDR domains of staphylococcal SDR proteins (ClfA and others); no one parent protein is named; Asp1 not modelled in the structure; The peptide was added unmodified; also called GlcNAcylated SD-repeat peptide (9-mer); O-GlcNAcylated SDR peptide (9-mer); source: 9-mer peptide soaked into the SdgB crystal with UDP-GlcNAc and glycosylated in the crystal
B4: the binding result in data set [10] is “binds”.
